Data published in US20210113678A1.

Experiments:
[1] = target: HLA-A*0201 molecule on human T2 cells (human); assay: T2 cells expressing HLA-A*0201, anti-HLA-A2-PE, FACS; settings: remark: other sources report otherwise
[2] = target: HLA-A*0201 molecule on human T2 cells (human); assay: T2 cells expressing HLA-A*0201, anti-HLA-A2-PE, FACS (Example 9)

| Binder | Concentration of peptide that induces 20% of HLA-A2 expression [1] [µM] | In vitro binding affinity (relative to reference peptide HIV pol 589-597) [1] | mean relative fluorescence intensity at 1.5625 µM peptide (% of HIV peptide) [1] | mean relative fluorescence intensity at 3.125 µM peptide (% of HIV peptide) [1] | mean relative fluorescence intensity at 6.25 µM peptide (% of HIV peptide) [1] | mean relative fluorescence intensity at 25 µM peptide (% of HIV peptide) [1] | mean relative fluorescence intensity at 50 µM peptide (% of HIV peptide) [1] | mean relative fluorescence intensity at 100 µM peptide (% of HIV peptide) [1] | In vitro binding affinity (relative to reference peptide HIV pol 589-597) [2] |
| --- | --- | --- | --- | --- | --- | --- | --- | --- | --- |
| ILDEAYVMA [EGFR-H] | 2.8 | 0.2 | 12 | 28.6 | 33.7 | 91.5 | 107 | 87.4 |  |
| IVGAETFYV (modifications not checked) [reference peptide HIV pol 589-597, P04585 1021-1029] |  |  |  |  |  |  |  |  | 1 |
